# Experimental data taken from the supplement of paper PMC10567573.
# B1: WSB1 (parent)
# chain: FSHDGLHVASLADDKMVRFWRIDE
# B2: ZNF263 (parent)
# chain: FGGNPRFLSLHRAHLGEEAHKCLE
# Variants of: B1
# Assay: protein stability index of a GFP-peptide fusion (GPS, HEK-293T) (PSI 1-6); higher = more stable
# Conditions: c terminus: a fixed tail appended
# 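Further: lentivirally expressed fusions sorted by FACS into six bins by GFP to DsRed ratio, PSI derived from sequencing read proportions per bin multiplied by bin number.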
row,Variant,protein stability index
1,F19Y,2.33
2,D23Q,1.9
3,D23E,1.58
4,D23C,1.21
5,D23M,1.73
6,D23R,1.45
7,D23G,2.25
8,D23T,1.33
9,D23P,3.58
10,D23K,2.02
11,D23V,1.81
12,D23H,1.85
13,D23W,2.11
14,D23I,3.06
15,D23L,2.35
16,D23Y,1.34
17,D23F,2.1
18,D23N,1.8
19,I22H,2.31
20,I22Y,1.69
21,I22K,2.66

row,Variant,protein stability index
1,I22G,3.54
2,I22P,2.64
3,I22W,1.77
4,I22M,2.16
5,I22Q,2.45
6,I22D,2.27
7,I22N,2.09
8,I22S,1.66
9,I22T,1.65
10,I22F,1.63
11,I22E,2.54
12,W20A,2.48
13,W20Y,2.26
14,W20E,3.18
15,W20L,1.88
16,W20H,2.67
17,W20N,2.66
18,W20P,2.6
19,W20V,2.77
20,W20M,2.67
21,W20T,2.85

row,Variant,protein stability index
1,W20G,2.79
2,W20C,2.42
3,W20I,2.85
4,W20K,2.69
5,W20S,2.7
6,W20F,2.09
7,W20D,3.51
8,R21E,1.8
9,R21W,2.12
10,R21A,1.39
11,R21I,3.26
12,R21K,2
13,R21Q,1.44
14,R21N,2.15
15,R21G,1.47
16,R21L,1.59
17,R21P,2.35
18,R21T,1.17
19,R21Y,3.45
20,R21D,2.19
21,R21C,3.2

row,Variant,protein stability index
1,R21S,2.12
2,R21H,2.42
3,E24F,2.68
4,E24K,1.84
5,E24G,1.23
6,E24W,2.56
7,E24Y,1.97
8,E24D,1.56
9,E24S,1.61
10,E24N,3
11,E24H,1.16
12,E24R,1.78
13,E24C,4.37
14,E24M,2.05
15,E24A,3.01
16,E24L,2.85
17,E24I,2.28
18,E24T,1.62
19,E24P,1.86
20,E24V,2.12

# Variants of: B2
# Assay: as above
# Conditions: c terminus: a fixed tail appended
row,Variant,protein stability index
1,S9N,1.55
2,S9A,1.52
3,S9L,2.25
4,S9Y,3.04
5,S9K,1.64
6,S9F,2.14
7,S9T,1.8
8,S9M,1.15
9,S9D,1.34
10,E18Y,1.88
11,E18P,2.05
12,E18K,1.39
13,E18C,2.12
14,E18V,2.43
15,E18W,2.03
16,E18L,2.33
17,E18H,1.47
18,E18A,1.77
19,E18T,1.46
20,E18N,1.07
21,E18R,1.62
22,G3R,2.48
23,G3L,2.5
24,G3Y,1.78
25,G3T,2.17
26,G3C,2

row,Variant,protein stability index
1,G3S,2.25
2,G3A,1.91
3,G3E,2.16
4,G3K,2.36
5,P5D,1.35
6,P5F,1.62
7,P5W,1.96
8,P5H,2.17
9,P5Y,1.57
10,P5S,1.93
11,P5L,1.69
12,P5V,1.96
13,P5C,1.49
14,A13R,2.08
15,A13F,2.52
16,A13W,1.81
17,A13M,2.21
18,A13P,1.56
19,A13V,1.79
20,A13G,1.99
21,A13H,2.26
22,A13K,1.94
23,A13N,2.04
24,A13D,1.81
25,A13L,1.43
26,A13Q,1.48

row,Variant,protein stability index
1,R6T,2.89
2,R6L,2.62
3,R6F,2.25
4,R6C,3.09
5,R6I,2.58
6,R6H,2.37
7,R6N,1.89
8,R6V,3.33
9,R6Q,1.82
10,R6K,2.77
11,R6G,1.74
12,R6S,1.79
13,K21L,2.14
14,K21M,2.76
15,K21G,1.9
16,K21C,1.98
17,K21T,2.04
18,K21Q,2
19,K21F,2.17
20,K21R,1.05
21,K21V,1.38
22,K21N,2
23,K21S,1.85
24,K21H,1.89
25,K21I,2.14
26,K21E,1.76

row,Variant,protein stability index
1,K21A,1.77
2,A19H,1.75
3,A19N,1.66
4,A19T,1.95
5,A19I,2.36
6,A19Q,1.9
7,A19F,1.44
8,A19V,1.91
9,A19W,2.23
10,L15Y,2.58
11,L15T,1.55
12,L15E,1.7
13,L15F,1.27
14,L15C,3.76
15,L15P,1.94
16,L15A,1.83
17,L15S,1.73
18,L15Q,1.86
19,L15W,2.28
20,L15R,2.05
21,L15I,1.54
22,L15N,1.7
23,H11D,2.22
24,H11V,2.55
25,H11R,1.91
26,H11N,1.8

row,Variant,protein stability index
1,H11Y,3.3
2,H11F,2.41
3,H11P,1.75
4,H11C,2.23
5,L8M,2.25
6,L8V,2.5
7,L8R,2.27
8,L8F,2.16
9,L8A,2.43
10,L8Y,3.2
11,L8Q,1.66
12,L8C,1.4
13,L8P,2.01
14,L8S,2.03
15,L8W,3.8
16,E24T,1.56
17,E24K,1.76
18,E24V,2.88
19,E24C,2.15
20,E24P,1.63
21,E24W,3.02
22,E24F,1.7
23,E24H,1.69
24,E24A,1.77
25,E24M,2.31
26,E24G,1.72

row,Variant,protein stability index
1,F1Y,1.47
2,F1A,3.45
3,F1Q,3.38
4,F1V,3.87
5,F1I,3.51
6,F1S,3.69
7,F1W,1.99
8,F1P,3.7
9,G2A,1.59
10,G2L,2.25
11,G2Y,2.32
12,G2H,1.79
13,G2R,3.66
14,G2K,2.87
15,G2F,2.55
16,G2Q,1.38
17,G2S,1.74
18,G2I,1.64
19,L23N,2.21
20,L23H,1.97
21,L23S,1.63
22,L23F,1.8
23,L23M,1.96
24,L23T,2.51
25,L23V,1.83
26,L23D,1.63

row,Variant,protein stability index
1,L23I,2.02
2,L23R,1.7
3,L23G,1.76
4,E17M,2.82
5,E17A,1.42
6,E17R,1.78
7,E17I,1.19
8,E17K,2.5
9,E17T,1.73
10,E17Q,1.85
11,E17P,1.41
12,E17F,2.94
13,E17G,1.3
14,E17L,1.25
15,E17H,1.82
16,E17C,2.37
17,F7K,3.58
18,F7S,3.57
19,F7A,2.79
20,F7M,2.42
21,F7E,4
22,F7C,2.31
23,F7T,3.22
24,F7P,2.71
25,F7R,3.15
26,F7Q,3.49

row,Variant,protein stability index
1,F7L,2.56
2,G16Q,2.76
3,G16A,2.1
4,G16H,1.7
5,G16R,1.64
6,G16P,2.12
7,G16V,2.42
8,G16K,1.62
9,G16M,2.19
10,G16F,1.9
11,C22L,1.38
12,C22P,2.44
13,C22R,1.75
14,C22E,2.19
15,C22Q,2.66
16,C22D,2.15
17,C22M,1.74
18,C22N,2.17
19,C22I,1.59
20,C22A,1.78
21,C22K,2
22,C22F,1.74
23,C22H,2.44
24,C22W,1.46
25,H14C,1.95
26,H14P,1.59

row,Variant,protein stability index
1,H14M,1.69
2,H14N,1.49
3,H14G,1.95
4,H14R,1.24
5,H14D,2.56
6,H14L,1.46
7,N4T,1.66
8,N4S,1.14
9,N4E,2.26
10,N4A,2.87
11,N4D,2.13
12,N4W,2.37
13,N4L,2.32
14,N4I,2.24
15,N4P,2.61
16,L10E,2.64
17,L10S,1.62
18,L10A,1.74
19,L10K,2.24
20,L10I,2.06
21,L10Y,2.33
22,L10P,2.01
23,R12D,1.85
24,R12Q,2.22
25,R12S,2.17
26,R12I,1.84

row,Variant,protein stability index
1,R12G,1.81
2,R12P,1.46
3,R12E,1.76
4,R12Y,1.24
5,R12L,1.56
6,R12V,3.14
7,H20R,1.66
8,H20Q,1.04
9,H20E,2.13
10,H20W,2.24
11,H20T,1.55
12,H20N,1.49
13,H20D,2.28
14,H20C,2.94
15,H20S,2.69
16,H20K,2.56
17,H20F,1.98
